pKd: −log10 of the molar value.
System: SOX2 (hSOX2) (human)
Assay: EMSA
Settings: Plasmid EMSA: 60 mM KCl, 12 mM Hepes pH 7.9, 2 mM MgCl2, 1 mM DTT, 0.12 mM EDTA, 12% glycerol, 0.01% NP40, 10 ng/uL DNA, 15 min 30 C; 0.8% agarose 0.5x TBE. …

SOX2 non-specific-site EMSA probe
binding signal (fold higher Kd than specific site): 30

SOX2 specific-site EMSA probe
pKd: 8.70
